Assay results as given in patent US20240083986A1 (published 2024).

T1: Apple (Mal d 1, MyBiosource, Cat #MBS1224919) (Apple, UniProt P43211 2-159, limits assumed)
T1 construct: Bought reagent
T1 sequence (looked up): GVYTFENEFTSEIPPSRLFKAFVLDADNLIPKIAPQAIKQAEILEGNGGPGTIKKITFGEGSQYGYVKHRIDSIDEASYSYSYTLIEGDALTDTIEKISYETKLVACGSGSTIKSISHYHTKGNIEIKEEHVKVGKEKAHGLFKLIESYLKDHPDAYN

T2: Celery (Api g 1, MyBiosource, Cat #MBS1171376) (Celery, UniProt P49372 1-154, limits assumed)
T2 construct: Bought reagent
T2 sequence (looked up): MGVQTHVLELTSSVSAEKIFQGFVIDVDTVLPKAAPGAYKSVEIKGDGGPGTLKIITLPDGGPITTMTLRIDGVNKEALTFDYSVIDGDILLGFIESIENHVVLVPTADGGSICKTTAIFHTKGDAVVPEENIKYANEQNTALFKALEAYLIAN

T3: European Hornbeam (Car b 1 isoform 1A & 1B, MyBiosource, Cat #MBS1200018) (European Hornbeam, UniProt P38949 2-160)
T3 construct: Bought reagent
T3 sequence (looked up): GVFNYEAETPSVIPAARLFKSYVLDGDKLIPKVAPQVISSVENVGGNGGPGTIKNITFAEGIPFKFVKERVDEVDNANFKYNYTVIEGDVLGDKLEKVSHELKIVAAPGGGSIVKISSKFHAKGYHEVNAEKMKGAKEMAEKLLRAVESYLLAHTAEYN

T4: natural Bet v 1 (Indoor, Cat #NA-BV1-1) (Betula verrucosa (European white birch, …, UniProt P15494 2-160))
T4 construct: Bought natural protein purified from birch pollen; also called nBet v 1
T4 sequence: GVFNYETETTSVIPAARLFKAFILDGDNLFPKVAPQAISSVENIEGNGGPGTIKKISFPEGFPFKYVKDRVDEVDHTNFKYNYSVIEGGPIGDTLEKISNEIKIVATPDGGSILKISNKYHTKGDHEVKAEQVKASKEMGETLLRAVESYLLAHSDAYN

T5: Alder (Aln g 1, MyBiosource, Cat #MBS1041484) (Alder, UniProt P38948 2-160, limits assumed)
T5 construct: Bought reagent
T5 sequence (looked up): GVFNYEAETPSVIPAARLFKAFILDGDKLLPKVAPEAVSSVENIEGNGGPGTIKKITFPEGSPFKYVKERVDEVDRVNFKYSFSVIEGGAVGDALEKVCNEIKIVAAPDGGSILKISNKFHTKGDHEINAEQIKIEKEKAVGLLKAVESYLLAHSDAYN


Key:
[1] = biological target: T1, Apple (Mal d 1, MyBiosource, Cat …); assay: SPR Biacore, 25C;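 further: binding of related allergens to purified monoclonal anti-Bet v 1 antibodies by surface plasmon resonance in HEPES-buffered saline pH 7.4, kinetics fitted to a 1:1 model with mass transport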
[2] = biological target: T2, Celery (Api g 1, MyBiosource, Cat …); assay: SPR Biacore, 25C;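 further: binding of related allergens to purified monoclonal anti-Bet v 1 antibodies by surface plasmon resonance in HEPES-buffered saline pH 7.4, kinetics fitted to a 1:1 model with mass transport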
[3] = biological target: T3, European Hornbeam (Car b 1 isoform 1A & …); assay: SPR Biacore, 25C;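 further: binding of related allergens to purified monoclonal anti-Bet v 1 antibodies by surface plasmon resonance in HEPES-buffered saline pH 7.4, kinetics fitted to a 1:1 model with mass transport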
[4] = biological target: T4, natural Bet v 1 (Indoor, Cat #NA-BV1-1); assay: SPR Biacore, mAb captured on anti-hFc, 25C;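 further: rate constants from sensorgrams fitted to a 1:1 model with mass transport limitation, KD and t½ derived from kinetic constants, run in HBS-ET buffer at pH 7.4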
[5] = biological target: T4, natural Bet v 1 (Indoor, Cat #NA-BV1-1); assay: SPR Biacore, mAb captured on anti-hFc, 37C;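 further: purified anti-Bet v 1 monoclonal antibodies, HBS-ET running buffer pH 7.4, rate constants from 1:1 model fit with mass transport limitation, KD and t½ calculated from kinetic constants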
Method: Equilibrium dissociation constants (KD) for natural Bet v 1 binding to purified anti-Bet v 1 monoclonal antibodies were determined using a real-time surface plasmon resonance biosensor (SPR-Biacore) on a Biacore 4000 instrument. All binding studies were performed in 10 mM HEPES, 150 mM NaCl, 3 mM EDTA, and 0.05% v/v surfactant Tween-20, pH 7.4 (HBS-ET) running buffer at 25° C. and 37° C. […] Association (kₐ) and dissociation (kd) rate constants were determined by fitting the real-time binding sensorgrams to a 1:1 binding model with mass transport limitation using Scrubber 2.0c curve-fitting software. Binding dissociation equilibrium constants (KD) and dissociative half-lives (t½) were calculated from the kinetic rate constants as:

[6] = biological target: T5, Alder (Aln g 1, MyBiosource, Cat …); assay: SPR Biacore, 25C;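 further: binding of related allergens to purified monoclonal anti-Bet v 1 antibodies by surface plasmon resonance in HEPES-buffered saline pH 7.4, kinetics fitted to a 1:1 model with mass transport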

binding result [1]	binding result [2]	binding result [3]	100 nM natural Bet v 1 Bound (RU) [4] [RU]	Kd [4] [nM]	koff [4] [s⁻¹]	kon [4] [M⁻¹ s⁻¹]	t½ [4] [min]	100 nM natural Bet v 1 Bound (RU) [5] [RU]	Kd [5] [nM]	koff [5] [s⁻¹]	kon [5] [M⁻¹ s⁻¹]	t½ [5] [min]	binding result [6]	Binder
no binding (tested: 100 nM)	no binding (tested: 100 nM)	no binding (tested: 100 nM)	61	2.77	0.00114	410000	10	74	9.16	0.00477	520000	2.4		H4H16987P (antibody, human IgG4 S228P, kappa, V domains shown, human IgG4; also called MAB4) VH: EVQLVESGGGLVQPGGSLRLSCAASGFTVSSNSMSWVRQAPGEGLEWVSVIFSGGITYYSDSVKGRFTISRHNSKNTLYLQMNSLRTEDTAVYYCARHSNWNFDAFDIWGQGTMVTVSS VL: DIQMTQSPSSLSASVGDRVTITCRASQSFDTYLNWYQQKPGKAPNLLIYATSSLQSGVPSRFSGSGSGTDFTLTISSLQPEDFGTYYCQQSYSIPYTFGQGTKLEIKR
no binding (tested: 100 nM)	no binding (tested: 100 nM)		54	13.5	0.00168	124000	6.8	63	27.9	0.00544	485000	2.1		H4H17031P (antibody, human IgG4, V domains shown) VH: QVQLQQWGAGLLKPSETLSLTCVVYGESFGNYHWNWIRQSPGKRLEWIGEINQNGHTNYNPSLKSRVTISVDTSKIQFSLRLNSVTAADTAVYFCARGHNYVNSYFGLDVWGQGTTVTVSS VL: EIVMTQSPATLSVSPGERATLSCRTSQSVSISLAWYQRKPGQAPRLLIFGSSTRATGVPARFSGSGSGTEFTLTISSLQSEDFAVYYCQQYNNWPYTFGQGTKLEIK
no binding (tested: 100 nM)		no binding (tested: 100 nM)	61	1.19	0.000469	394000	25	74	1.9	0.00119	627000	10	no binding (tested: 100 nM)	H4H17033P (antibody, human IgG4, V domains shown) VH: QVQLVQSGAEVKKPGASVKVSCKASGYTFAAHYMHWVRQAPGQGLEWMGWINTYTGGTNYGQKFQGRVTMTRDTSITTAYMELSRLRSDDTAVYYCARDRRNWNFVFEYWGQGTLVTVSS VL: DIQMTQSPSSLSASVGDRVTISCRASQNIKNYLNWYQQKPGKAPKLLIYEASNLQSGAPSRFSGSGSGTDFTLTISSLEPEDFATYYCQQSFSIPWTFGQGTKVEIK
no binding (tested: 100 nM)	no binding (tested: 100 nM)		48	4.32	0.00027	62400	43	67	9.48	0.00093	98100	12		H4H17027P (antibody, human IgG4, V domains shown) VH: EVQLVESGGGLVQPGGSLRLSCAASGFTFRNYAMHWVRQAPGEGLEWVAAIYRNSDSIDYADSVKGRFTISRDNAKNSLYLQMNSLKTEDTALYYCAKDEGFLEYFDSWGQGTLVTVSS VL: EIVLTQSPGTLSLSPGERASLSCRASQSVSSSFLAWYQQKPGQAPRLLIYGVSSRFIGIPDRFSGGGSGTDFTLTITRLEPEDFAVYYCQQYGRSPWTFGQGTKVEIK
no binding (tested: 100 nM)	no binding (tested: 100 nM)												no binding (tested: 100 nM)	H4H16992P (antibody, human IgG4 S228P, kappa, V domains shown, human IgG4; also called REGN5713; MAB1) VH: QVQLQESGPGLVKPSETLSLTCSVSGGSITNYFWTWIRQSPGKGLEWIGYIYYSGGTNYNPSLKSRVTISIDTSKNQFSLNMNSVTAADTAVYYCAGSYYYGVDVWGQGTTVTVSS VL: EIVLTQSPATLSLSPGERATLSCRASQSIKSFLAWYRQKPGQAPRLLIYDASNRPTGIPARFSGSGSGTDFTLTINSLESEDFAVYFCQQRNNWPFTFGPGTKVDIKR
no binding (tested: 100 nM)	no binding (tested: 100 nM)		63	3.79	0.00107	281000	11	71	7.77	0.0029	373000	3.9		H4H17028P (antibody, human IgG4, V domains shown) VH: QVQLVESGGGVVQPGRSLRLSCAASGFTFSRYAIHWVRQAPGKGLEWVAVISYDGDDKYYGDSVKGRFTISRDNSKTMVYLHMNSLRTEDTAVYYCAKDGYSLYGKDYFDYWGQGTLVTVSS VL: EIVLTQSPGTLPLSPGERATLSCRASQSITNSYLAWYQQKPDQAPRLLIYGASSRATGIPDRFSGSESGTDFTLTISRLEPEDFAVYYCQQYVRSPWTFGQGTKVEIK
no binding (tested: 100 nM)	no binding (tested: 100 nM)		74	0.982	0.000201	205000	58	93	2.08	0.000601	289000	19	no binding (tested: 100 nM)	H4H16946P (antibody, human IgG4, V domains shown) VH: EVQLVESGGGLVQPGGSLRLSCVASGFTFSNYDMNWVRQAPGEGLEWISYISYSDHNIYYIDSVKGRFTISRDNAKNSLYLQMNSLRAEDTAIYYCAREALASSSFDYWGQGTLVTVSS VL: EIVMTQSPATLSVSPGERVTLSCRASQSVSGNLAWYQQKPGQAPRLLIYSASTGATGVPARFSGSGSGTEFTLTISSLQSEDFALYYCQQYNKWPRTIGQGTKVEIK
no binding (tested: 100 nM)	no binding (tested: 100 nM)												no binding (tested: 100 nM)	H4H17038P2 (antibody, human IgG4 S228P, kappa, V domains shown, human IgG4; also called REGN5714; MAB3) VH: EVQLVESGGDLVQPGGSLRLSCAASGFTFSSYEMNWVRQAPGKGLEWVSFISDSSSNIYYADSVKGRFTISRDNAKKSLYLQMTSLRAEDTAVYYCAREAIGSTSFDNWGQGTLVTVSS VL: EIVMTQSPATLSVSPGERATLSCRASQSVSSSLAWYQQKPGQAPRRLIYSASTRATGIPARFSGSGSGTEFTLTISSLQSEDFAIYYCHQYNNWPLTFGGGTKVEIKR
	no binding (tested: 100 nM)	no binding (tested: 100 nM)	57	3.26	0.000781	240000	15	66	6.93	0.00244	352000	4.7		H4H16971P (antibody, human IgG4, V domains shown) VH: QVQLVESGGGVVQPGRSLRLSCAASGFTFSSYGLHWVRQAPGKGLEWVAVISDDGSYKFYADSMKGRFTISRDNSKNTLYLQMNSLRAEDTAVYYCAKDRGRSGWYYFDYWGQGTLVTVSS VL: not shown
no binding (tested: 100 nM)	no binding (tested: 100 nM)	no binding (tested: 100 nM)	41	1.21	0.000278	230000	42	52	1.8	0.000616	342000	19	no binding (tested: 100 nM)	H4H16979P (antibody, human IgG4, V domains shown) VH: QVQLVQSGAEVKKPGASVKVSCKASGYTFIAYYLHWVRQAPGQGLEWMGLLNPYTGGSYYTQKFQGRVTMTRDTSIDTAYMELNSLRSDDTAIYYCARDKRSYYIPYAFEIWGQGTMVTVSS VL: not shown
